Experimental data from PMC5593927, “Overlapping and Specific Functions of the Hsp104 N Domain Define Its Role in Protein Disaggregation” (Scientific Reports, 2017).
Each block holds one binder with its values, some of them ahead of it. Where no end group is shown, it is not given here. The star is where a group is joined. Biotin = O=C1N[C@H]2[C@H](CS[C@H]2CCCCC(=O)*)N1; Ahx = NCCCCCC(=O)O

Key:
[1] = target: T1, Hsp104N, isolated N domain of S. cerevisiae Hsp104 (first 165 residues) (S. cerevisiae, UniProt P31539 1-165); experiment: BLI; Octet RED96; biotinylated C1 peptide immobilised on streptavidin biosensors at 0.5 µM; Hsp104N 4.3 to 137 µM in solution; 50 mM Tris-HCl pH 8.5, 20 mM ammonium citrate, 10% PEG4000, 0.1 mg/ml BSA; 25 °C; 10 min association, 10 min dissociation; equilibrium shifts from two independent measurements; conditions: both partners purified
T1 construct: Hsp104, S. cerevisiae, isolated N domain consisting of the first 165 residues, cloned into pProEX HTb; Tag cleavage by TEV is told in the general purification paragraph, not for Hsp104N by name; also called His6-Hsp104N; source: E. coli BL21-CodonPlus (DE3)-RIL, purified (Ni-NTA, anion exchange); not shown: His6, N-terminal, cleaved

[2] = target: the molecule itself; experiment: crystal structure; Hsp104ND1 crystals grown at 4 °C, space group P6_(5)22, one molecule per asymmetric unit, nucleotide-free; N domain of one molecule contacts the C1 helix of the neighboring molecule; 2.8 Å

Kd [1]: 14 ± 1.7 µM
B1: Biotinylated C1 peptide (Biotin-Ahx-GEVAEPSVRQTVAILRGLQ) (peptide)
peptide: {Biotin-Ahx}-GEVAEPSVRQTVAILRGLQ
notes: Immobilised on streptavidin biosensors through the biotin; source: synthetic peptide (AAPPTec LLC)

B2: Hsp104ND1, N-terminal fragment of Saccharomyces cerevisiae Hsp104 (residues 1-360) (domain or fragment, S. cerevisiae, UniProt P31539 1-360, looked up)
chain: MNDQTQFTERALTILTLAQKLASDHQHPQLQPIHILAAFIETPEDGSVPYLQNLIEKGRYDYDLFKKVVNRNLVRIPQQQPAPAEITPSYALGKVLQDAAKIQKQQKDSFIAQDHILFALFNDSSIQQIFKEAQVDIEAIKQQALELRGNTRIDSRGADTNTPLEYLSKYAIDMTEQARQGKLDPVIGREEEIRSTIRVLARRIKSNPCLIGEPGIGKTAIIEGVAQRIIDDDVPTILQGAKLFSLDLAALTAGAKYKGDFEERFKGVLKEIEESKTLIVLFIDEIHMLMGNGKDDAANILKPALSRGQLKVIGATTNNEYRSIVEKDGAFERRFQKIEVAEPSVRQTVAILRGLQPKYE
notes: Hsp104, S. cerevisiae, residues 1-360: N domain and extended D1-large domain with the first helix of the D1-small domain (C1 helix, residues 343-351); residues 4 to 352 traced; The general purification text describes Ni-NTA and TEV cleavage of an N-terminal His6 tag; also called N-terminal fragment of yeast Hsp104
binding result [2]: binds
